Values of other authors, collected in paper PMC1298930.

Molecular target: PCNA2 (Sulfolobus solfataricus) (UniProt Q97Z84)
Chain of UniProt Q97Z84 (Q97Z84 whole entry): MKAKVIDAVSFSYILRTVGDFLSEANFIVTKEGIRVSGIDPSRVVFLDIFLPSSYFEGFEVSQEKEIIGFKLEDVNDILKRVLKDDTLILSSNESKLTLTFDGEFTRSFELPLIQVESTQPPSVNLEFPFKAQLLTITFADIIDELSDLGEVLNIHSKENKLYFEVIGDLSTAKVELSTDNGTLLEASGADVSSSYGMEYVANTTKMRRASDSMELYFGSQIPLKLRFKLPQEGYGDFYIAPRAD

In the case of PCNA1 (from UniProt P57766), the Kd is listed as 0.012 nM.
